Experimental findings from patent US20180002425A1 are described below.

In assay [1] the target is wild-type human TpoR on Ba/F3-hMpl cells (human) (UniProt P40238). Kind of assay: cell-based or functional assay.
The target in assay [2] is TpoR-IL6ST chimeric receptor on HEK293T SIE-bla reporter cells (clone CR2-9) (human) (UniProt P40238). Kind of assay: cell-based or functional assay.
Assay [3] addresses granulocyte colony stimulating factor receptor (UniProt Q99062).

granulocyte colony stimulating factor receptor, sequence (Q99062 25-836 limits assumed): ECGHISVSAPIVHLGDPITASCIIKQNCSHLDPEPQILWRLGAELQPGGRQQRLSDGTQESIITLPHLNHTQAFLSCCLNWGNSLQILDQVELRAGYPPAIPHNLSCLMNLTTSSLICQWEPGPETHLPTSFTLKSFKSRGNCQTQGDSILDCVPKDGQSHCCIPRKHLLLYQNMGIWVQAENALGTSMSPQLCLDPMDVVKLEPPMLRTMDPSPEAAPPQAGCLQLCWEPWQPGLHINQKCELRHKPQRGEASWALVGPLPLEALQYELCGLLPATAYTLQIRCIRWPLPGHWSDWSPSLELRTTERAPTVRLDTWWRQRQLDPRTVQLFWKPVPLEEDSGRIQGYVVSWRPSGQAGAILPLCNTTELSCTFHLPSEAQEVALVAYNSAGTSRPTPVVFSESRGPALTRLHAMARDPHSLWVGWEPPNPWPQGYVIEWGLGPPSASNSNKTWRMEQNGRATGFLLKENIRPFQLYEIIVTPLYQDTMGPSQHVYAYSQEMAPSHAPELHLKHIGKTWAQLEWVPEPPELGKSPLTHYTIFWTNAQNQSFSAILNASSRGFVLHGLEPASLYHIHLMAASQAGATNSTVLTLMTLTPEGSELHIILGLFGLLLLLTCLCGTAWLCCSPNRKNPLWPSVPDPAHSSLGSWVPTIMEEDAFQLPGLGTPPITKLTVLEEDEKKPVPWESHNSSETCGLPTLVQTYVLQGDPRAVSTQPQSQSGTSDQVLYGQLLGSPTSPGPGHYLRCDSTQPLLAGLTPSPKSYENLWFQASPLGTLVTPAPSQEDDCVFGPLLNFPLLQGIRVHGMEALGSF

On to “Thrombopoietin (from UniProt P40225 22-353) (ligand)”, for which the EC50, long-term proliferation assay (MTS) of Ba/F3-hMPL cells in assay [1] is 0.07 nM. In assay [2], the EC50, short-term fluorescence (FRET beta-lactamase) reporter assay was determined as 0.02 nM.

In the case of “granulocyte colony stimulating factor (from UniProt P09919 31-204) (ligand)”, in assay [3], the Responsive Population (fraction of reporter cells in the gate, Pacific Blue-A against AmCyan-A, FRET beta-lactamase reporter; unit not given) was 84.2.
